Assay results from article PMC5456102, “NGR-peptide−drug conjugates with dual targeting properties” (PLoS ONE, 2017).
Positions of bridges follow the written chain, without caps; N, C: chain ends. Residues, ends and D or L forms follow the SMILES beside them. Groups on a side chain read outwards from the residue. Chains are numbered I, II in the order given. *: point of attachment. Daunorubicin(13-NOCH2CO) = COc1cccc2c1C(=O)c1c(O)c3c(c(O)c1C2=O)C[C@@](O)(C(C)=NOCC(=O)*)C[C@@H]3O[C@H]1C[C@H](N)[C@H](O)[C@H](C)O1

Experiments:
HT-1080 cells = experiment: Cellular uptake by flow cytometry; type: cell-based, human; details: 10 μM conjugate in FBS supplemented medium, 6 h, 37°C, flow cytometry of Dau fluorescence, live cells (Zombie Violet)
Description: (§1) HT-1080 and HT-29 cells were seeded at a 250,000 cells/well density, and were incubated overnight in their culturing media. The following day daunomycin conjugates were dissolved in culturing media (FBS supplemented), and added to the cells immediately at 10 μM final concentration. After 6 h incubation at 37°C the supernatant was removed, cells were washed with PBS and trypsinized with 0.1% trypsin (Gibco® by Life Technologies) for 10 minutes. Trypsinization was terminated with FBS containing medium, then cells were washed and suspended in serum free medium. For live/dead distinction we used Zombie Violet reagent (BioLegend, San Diego, CA). Samples were measured and analyzed with an Attune® Acoustic Focusing Cytometer (ThermoFisher Scientific).
(§2) As daunomycin-conjugates are fluorescent, we were able to follow their cellular uptake with a flow cytometer (Fig 10, S15 Fig). […] The higher uptake of 2 compared to 5 might partly compensate its slower degradation resulting in almost similar bioactivity. […] We speculate that the high cytostatic effect of 3 is explained by its fast decomposition resulting in the active Dau = Aoa-Gly-OH metabolite. […] However, after deamidation the formed isoDGR might be recognized by RGD integrin receptor, that results in moderate cytotoxicity in both cell lines during a longer treatment. […] Taking also the slow metabolite release into account, this observation explains the lack of significant cytostatic effect.
(§3) Fig 10 Direct uptake of daunomycin-conjugates. Normalized uptake values indicate the fold increase of the measured fluorescent units compared to the autofluorescence of empty cells.

HT-29 cells = experiment: Cellular uptake by flow cytometry; type: cell-based, human; details: 10 μM conjugate in FBS supplemented medium, 6 h, 37°C, flow cytometry of Dau fluorescence, live cells (Zombie Violet)
Description: as §1, §2, §3

Lysosomal degradation = type: in vitro ADME; details: rat liver lysosomal homogenate, 37°C, LC-MS; for time within which the conjugate decomposed in lysosomal homogenate / rate of decomposition in lysosomal homogenate: 0.2 M NaOAc pH 5.0, conjugate/homogenate 1:1 w/w; for time within which the conjugate decomposed in lysosomal homogenate: conjugate 0.2 μg/μL, samples at 5 min, 72 h; for time within which the conjugate decomposed in lysosomal homogenate / starting conjugate found after 6 h incubation in lysosomal homogenate: 6 h; for starting conjugate found after 6 h incubation in lysosomal homogenate: 0.2 M NaOAc pH 5.0, 1:1 w/w
Description: Rat liver lysosomal homogenate was prepared as described previously. Protein concentration was determined with bicinchoninic acid (Pierce BCA protein assay) according to the manufacturer’s protocol (ThermoFisher Scientific, Rockford, IL, USA) and it was 17.4 μg/μL. Degradation of the bioconjugates in the rat liver lysosomal homogenate was determined as follows: i) bioconjugates were dissolved in d.i. water at a concentration of 4 μg/μL, ii) the solutes were further diluted to a concentration of 0.2 μg/μL with 0.2 M NaOAc (pH 5.0), iii) the rat liver lysosomal homogenate was diluted with 0.2 M NaOAc (pH 5.0) to a concentration of 3.48 μg/μL, iv) the homogenate was added to the conjugates (conjugate/lysosomal homogenate ratio = 1:1, w/w), v) the reaction mixtures were incubated at 37°C and aliquots of 13 μL were taken at 5 min, 6 h and 72 h, vi) the reactions were quenched by adding 2 μL of formic acid, followed by LC-MS analysis (Bruker Esquire 3000+; Jasco PU-2085plus system; Supelco Ascentis C18 coloum, 3 μm, 2,1 x 150 mm, 100 Å).
Conjugates for drug targeting with receptor-binding peptides may enter the cells by receptor mediated endocytosis. Endocytic vesicles fuse with lysosomes, which is followed by the degradation of the conjugates by lysosomal enzymes. Cathepsin B is one of the main lysosomal enzymes overexpressed in cancer cells. Therefore, Cathepsin B labile spacers (e.g. GFLG tetrapeptide) are often incorporated between the drug and targeting moiety. We used a rat lysosomal homogenate to study the degradation of conjugates and to follow the release of drug containing metabolites (Fig 9, S9–S14 Figs). […] In addition, a minor peak corresponding to Dau = Aoa-Gly-Phe-OH could also be detected. The peak corresponding to Dau = Aoa-GF-OH was the highest in case of conjugate 1. In contrast to these conjugates, decomposition of the disulfide bond containing conjugate (2) was much slower. […] This slow degradation might be one of the reasons why conjugate 2 is less toxic than conjugate 5, which has the same ring size. […] After 72 h only Dau = Aoa-Gly-OH could be detected in cases of all conjugates.

[1] = non-conjugated cyclic peptides; cited from earlier work
Description: Cyclic NGR peptides are promising candidates as targeting moieties for drug delivery to CD13-positive tumor cells and the tumor neovasculature. Up to now the most widely used NGR peptide conjugates have been based on the disulfide bridge containing cyclic peptide [CNGRC]. The cargo (including tumor necrosis factor (TNF), platina complexes, etc.) is usually attached to the C-terminus of the peptide. Recently, an amide bond containing cyclic NGR peptide ([KNGRE]-NH2) with higher resilience against deamidation has been described, in which cargos such as fluorescent labels or chelated ...

| Compound | cellular uptake in HT-1080 cells (HT-1080 cells) | cellular uptake in HT-29 cells (HT-29 cells) | time within which the conjugate decomposed in lysosomal homogenate (Lysosomal degradation) | starting conjugate found after 6 h incubation in lysosomal homogenate (Lysosomal degradation) | rate of decomposition in lysosomal homogenate (Lysosomal degradation) | chemostability class of the free cyclic NGR peptide (deamidation) [1] |
| --- | --- | --- | --- | --- | --- | --- |
| COc1cccc2c1C(=O)c1c(O)c3c(c(O)c1C2=O)C[C@@](O)(C(C)=NOCC(=O)NCC(=O)N[C@@H](Cc1ccccc1)C(=O)N[C@@H](CC(C)C)C(=O)NCC(=O)N[C@@H](CCCCNC(=O)CNC(=O)CNC(=O)[C@@H]1CSCC(=O)N[C@@H](CC(N)=O)C(=O)NCC(=O)N[C@@H](CCCNC(=N)N)C(=O)N1)C(N)=O)C[C@@H]3O[C@H]1C[C@H](N)[C@H](O)[C@H](C)O1 [compound 1, Dau = GFLGK([CH2CO-NGRC]GG)-NH2] (I: {CH2CO}-NGRCGG / II: {Daunorubicin(13-NOCH2CO)}-GFLGK-NH2; amide I:C-II:5; thioether I:N-I:4) | did not show significant cellular uptake | did not show significant cellular uptake | ≤ 6 h |  |  |  |
| COc1cccc2c1C(=O)c1c(O)c3c(c(O)c1C2=O)C[C@@](O)(C(C)=NOCC(=O)NCC(=O)N[C@@H](Cc1ccccc1)C(=O)N[C@@H](CC(C)C)C(=O)NCC(=O)N[C@@H](CCCCNC(=O)CNC(=O)CNC(=O)[C@@H]1CSSC[C@H](NC(C)=O)C(=O)N[C@@H](CC(N)=O)C(=O)NCC(=O)N[C@@H](CCCNC(=N)N)C(=O)N1)C(N)=O)C[C@@H]3O[C@H]1C[C@H](N)[C@H](O)[C@H](C)O1 [compound 2, Dau = GFLGK(Ac-[CNGRC]GG)-NH2] (I: Ac-CNGRCGG / II: {Daunorubicin(13-NOCH2CO)}-GFLGK-NH2; disulfide I:1-I:5; amide I:C-II:5) | higher accumulation | higher accumulation |  | the presence of the starting compound could be detected | much slower |  |
| COc1cccc2c1C(=O)c1c(O)c3c(c(O)c1C2=O)C[C@@](O)(C(C)=NOCC(=O)NCC(=O)N[C@@H](Cc1ccccc1)C(=O)N[C@@H](CC(C)C)C(=O)NCC(=O)N[C@@H](CCCCNC(=O)CNC(=O)CNC(=O)[C@@H]1CSCC(=O)N[C@@H](CCCCN)C(=O)N[C@@H](CC(N)=O)C(=O)NCC(=O)N[C@@H](CCCNC(=N)N)C(=O)N1)C(N)=O)C[C@@H]3O[C@H]1C[C@H](N)[C@H](O)[C@H](C)O1 [compound 3, Dau = GFLGK([CH2CO-KNGRC]GG)-NH2] (I: {CH2CO}-KNGRCGG / II: {Daunorubicin(13-NOCH2CO)}-GFLGK-NH2; amide I:C-II:5; thioether I:N-I:5) | moderate uptake | moderate uptake | ≤ 6 h |  |  |  |
| COc1cccc2c1C(=O)c1c(O)c3c(c(O)c1C2=O)C[C@@](O)(C(C)=NOCC(=O)NCC(=O)N[C@@H](Cc1ccccc1)C(=O)N[C@@H](CC(C)C)C(=O)NCC(=O)NCCCC[C@@H]1NC(=O)CSC[C@@H](C(N)=O)NC(=O)[C@H](CCCNC(=N)N)NC(=O)CNC(=O)[C@H](CC(N)=O)NC1=O)C[C@@H]3O[C@H]1C[C@H](N)[C@H](O)[C@H](C)O1 [compound 4, [CH2CO-K(Dau = Aoa-GFLG)NGRC]-NH2] ({CH2CO}-K([Gly-Leu-Phe-Gly-Daunorubicin(13-NOCH2CO)])NGRC-NH2; thioether N-5) | low cellular uptake | low cellular uptake |  | the main components were still the intact conjugates | decomposed very slowly |  |
| COc1cccc2c1C(=O)c1c(O)c3c(c(O)c1C2=O)C[C@@](O)(C(C)=NOCC(=O)NCC(=O)N[C@@H](Cc1ccccc1)C(=O)N[C@@H](CC(C)C)C(=O)NCC(=O)NCCCC[C@@H]1NC(=O)CC[C@@H](C(N)=O)NC(=O)[C@H](CCCNC(=N)N)NC(=O)CNC(=O)[C@H](CC(N)=O)NC1=O)C[C@@H]3O[C@H]1C[C@H](N)[C@H](O)[C@H](C)O1 [compound 6, [K(Dau = Aoa-GFLG)NGRE]-NH2] (K([Gly-Leu-Phe-Gly-Daunorubicin(13-NOCH2CO)])NGRE-NH2; lactam N-5) | low cellular uptake | low cellular uptake |  | the main components were still the intact conjugates | decomposed very slowly |  |
| Ac-CNGRC-NH2 (disulfide 1-5) [Ac-[CNGRC]-NH2, disulfide bridge containing cyclic NGR peptide] |  |  |  |  |  | moderately |
| c[CH2-CO-KNGRC]-NH2 (sidechain bridge or staple) [thioether bond containing cyclic NGR peptide] |  |  |  |  |  | highly labile |
| c[CH2-CO-NGRC]-NH2 |  |  |  |  |  | highly labile |
| c[KNGRE]-NH2 (lariat or depsi) [head-to-side chain amide bond cyclized NGR peptide] |  |  |  |  |  | stable |
